According to patent publication US20190060473A1, “HSP90 INHIBITOR DRUG CONJUGATES” (priority 2016, published 2019):
Read-outs that look alike come from different tables or passages of the source.

Legend:
[1] = tested on: HER2 expression in BT-474 human breast cancer cells; assay: In-Cell Western assay (ICW) for HER2 expression in BT-474 cells; assay type: cell-based
Method: The HDCs as described herein were used in various experiments to determine their activity and properties, such as binding affinity and stability in blood. An in-Cell Western assay (ICW) for HER2 expression was carried out in BT-474 human breast cancer cells. BT-474 cells were seeded in 96-well plates at a density of 20,000 cells per well. Twenty-four hours after plating, cells were dosed with graded concentrations of HDCs using 3-fold serial dilutions and incubated for 24 h. Growth media containing drug was aspirated off. Cells were then fixed in 4% paraformaldehyde for 20 min and washed three times in 0.1% Triton X-100. After blocking for 1.5 h in Odyssey Blocking Buffer (LI-COR, Lincoln, Nebr., USA), cells were incubated with primary HER2 antibody overnight at 4° C. Wells were washed three times with 0.1% Tween-20 and incubated in secondary antibody (LI-COR, Lincoln, Nebr., USA) and DRAQ5 (CST, Beverly, Mass., USA) for 1 h. Following 3 final washes with 0.1% Tween-20, antibody-antigen complexes were visualized using the Odyssey system. For quantification, HER2 signal was normalized to DRAQ5 flourescent probe.

[2] = Metabolic stability in mouse whole blood (LC-MS/MS); assay type: in vitro ADME; settings: for Mouse blood stability 1 h (% remaining): 10 μM
Method: Metabolic stability of various HDCs was tested in mouse blood. All compounds were tested at a concentration of 10 μM. The time dependent disappearance of test compound in mouse whole blood, and the release of the compound qualitatively as determined by liquid chromatography tandem mass spectrometry (LC-MS/MS), was tested at time points of 15 minutes, 30 minutes, 45 minutes and 1 hour. All compounds were tested in duplicate, and the average was taken. The results in Table 2 show the percent of test compound remaining after 1 hour.

[3] = BT-474 cells, 24 h incubation, 3-fold serial dilutions, HER2 signal normalized to DRAQ5, read-out: HER2 (ICW)
[4] = mouse whole blood, percent of test compound remaining after 1 hour, average of duplicate

In the case of `CCNC(=O)c1nnc(-c2cc(C(C)C)c(O)cc2O)n1-c1ccc(CN2CCC(C(=O)NC3(C(=O)OC[C@@H](NC(=O)c4cc(-c5cc(NC(C)C)ncc5Cl)c[nH]4)c4cccc(Cl)c4)CC3)CC2)c(F)c1` [SDC-TRAP-0507, (S)-2-(4-(5-chloro-2-(isopropylamino)pyridin-4-yl)-1H-pyrrole-2-carboxamido)-2-(3-chlorophenyl)ethyl-(1-(4-(3-(2,4-dihydroxy-5-isopropylphenyl)-5-(ethylcarbamoyl)-4H-1,2,4-triazol-4-yl)-2-fluorobenzyl)piperidine-4-carboxamido)cyclopropanecarboxylate], the IC50 [1, 3] is reported as 304 nM and the “Mouse blood stability 1 h (% remaining)” value [2, 4] is reported as 105%.
For `CC(C)Nc1cc(-c2c[nH]c(C(=O)N[C@H](COC(=O)C3(NC(=O)CCn4ccc5cc(-n6c(O)nnc6-c6cc(C(C)C)c(O)cc6O)ccc54)CC3)c3cccc(Cl)c3)c2)c(Cl)cn1` [SDC-TRAP-0508, (S)-2-(4-(5-chloro-2-(isopropylamino)pyridin-4-yl)-1H-pyrrole-2-carboxamido)-2-(3-chlorophenyl)ethyl 1-(3-(5-(3-(2,4-dihydroxy-5-isopropylphenyl)-5-hydroxy-4H-1,2,4-triazol-4-yl)-1H-indol-1-yl)propanamido)cyclopropanecarboxylate], the IC50 [1, 3] was 2330 nM and the “Mouse blood stability 1 h (% remaining)” value ([2]; mouse, blood, 1 h) was 32.4%.
With `CC(C)Nc1cc(-c2c[nH]c(C(=O)N[C@H](COC(=O)C3(NC(=O)C4CCN(Cc5ccc(-n6c(O)nnc6-c6cc(C(C)C)c(O)cc6O)cc5F)CC4)CC3)c3cccc(Cl)c3)c2)c(Cl)cn1` [SDC-TRAP-0509, (S)-2-(4-(5-chloro-2-(isopropylamino)pyridin-4-yl)-1H-pyrrole-2-carboxamido)-2-(3-chlorophenyl)ethyl 1-(1-(4-(3-(2,4-dihydroxy-5-isopropylphenyl)-5-hydroxy-4H-1,2,4-triazol-4-yl)-2-fluorobenzyl)piperidine-4-carboxamido)cyclopropanecarboxylate] the IC50 [1, 3] was 2690 nM and the “Mouse blood stability 1 h (% remaining)” value [2, 4] was 86.9%.
In the case of `CCNC(=O)c1nnc(-c2cc(C(C)C)c(O)cc2O)n1-c1ccc(CN2CCC(C(=O)N3CCC(CC(=O)OC[C@@H](NC(=O)c4cc(-c5cc(NC(C)C)ncc5Cl)c[nH]4)c4cccc(Cl)c4)CC3)CC2)c(F)c1` [SDC-TRAP-0512, (S)-2-(4-(5-chloro-2-(isopropylamino)pyridin-4-yl)-1H-pyrrole-2-carboxamido)-2-(3-chlorophenyl)ethyl 2-(1-(1-(4-(3-(2,4-dihydroxy-5-isopropylphenyl)-5-(ethylcarbamoyl)-4H-1,2,4-triazol-4-yl)-2-fluorobenzyl)piperidine-4-carbonyl)piperidin-4-yl)acetate], the IC50 [1, 3] is reported as 60 nM and the “Mouse blood stability 1 h (% remaining)” value [2, 4] is reported as 100%.
With `CCNC(=O)c1nnc(-c2cc(C(C)C)c(O)cc2O)n1-c1ccc(CN2CCC(C(=O)NC(C)(C)C(=O)OC[C@@H](NC(=O)c3cc(-c4cc(NC(C)C)ncc4Cl)c[nH]3)c3cccc(Cl)c3)CC2)c(F)c1` [SDC-TRAP-0514, (S)-2-(4-(5-chloro-2-(isopropylamino)pyridin-4-yl)-1H-pyrrole-2-carboxamido)-2-(3-chlorophenyl)ethyl 2-(1-(4-(3-(2,4-dihydroxy-5-isopropylphenyl)-5-(ethylcarbamoyl)-4H-1,2,4-triazol-4-yl)-2-fluorobenzyl)piperidine-4-carboxamido)-2-methylpropanoate] the IC50 [1, 3] was 345 nM and the “Mouse blood stability 1 h (% remaining)” value [2, 4] was 105%.
With `CC(C)Nc1cc(-c2c[nH]c(C(=O)N[C@H](COC(=O)C3CCN(Cc4ccc(-n5c(O)nnc5-c5cc(C(C)C)c(O)cc5O)cc4F)CC3)c3cccc(Cl)c3)c2)c(Cl)cn1` [SDC-TRAP-0517, (S)-2-(4-(5-chloro-2-(isopropylamino)pyridin-4-yl)-1H-pyrrole-2-carboxamido)-2-(3-chlorophenyl)ethyl 1-(4-(3-(2,4-dihydroxy-5-isopropylphenyl)-5-hydroxy-4H-1,2,4-triazol-4-yl)-2-fluorobenzyl)piperidine-4-carboxylate] the IC50 [1, 3] was 202 nM.
Compound `CCNC(=O)c1nnc(-c2cc(C(C)C)c(O)cc2O)n1-c1ccc(CN2CCC(C(=O)OC[C@@H](NC(=O)c3cc(-c4cc(NC(C)C)ncc4Cl)c[nH]3)c3cccc(Cl)c3)CC2)c(F)c1` [SDC-TRAP-0518, (S)-2-(4-(5-chloro-2-(isopropylamino)pyridin-4-yl)-1H-pyrrole-2-carboxamido)-2-(3-chlorophenyl)ethyl 1-(4-(3-(2,4-dihydroxy-5-isopropylphenyl)-5-(ethylcarbamoyl)-4H-1,2,4-triazol-4-yl)-2-fluorobenzyl)piperidine-4-carboxylate] has an IC50 [1, 3] of 104 nM.
Work on `CC(C)Nc1cc(-c2c[nH]c(C(=O)N[C@H](COC(=O)[C@@H](C)NC(=O)C3CCN(Cc4ccc(-n5c(O)nnc5-c5cc(C(C)C)c(O)cc5O)cc4F)CC3)c3cccc(Cl)c3)c2)c(Cl)cn1` [SDC-TRAP-0519] yielded an IC50 [1, 3] of 1650 nM.
In the case of `CCNC(=O)c1nnc(-c2cc(C(C)C)c(O)cc2O)n1-c1ccc(N(C)C2CCN(C(=O)CCC(=O)OC[C@H](O)Cn3cnc4c(c(Nc5ccc(I)cc5F)c(F)c(=O)n4C)c3=O)CC2)nc1` [SDC-TRAP-0525, (R)-3-(6-fluoro-5-((2-fluoro-4-iodophenyl)amino)-8-methyl-4,7-dioxo-7,8-dihydropyrido[2,3-d]pyrimidin-3(4H)-yl)-2-hydroxypropyl 4-(4-((5-(3-(2,4-dihydroxy-5-isopropylphenyl)-5-(ethylcarbamoyl)-4H-1,2,4-triazol-4-yl)pyridin-2-yl)(methyl)amino)piperidin-1-yl)-4-oxobutanoate], the “Mouse blood stability 1 h (% remaining)” value [2, 4] is reported as 10.8%.
In the case of `CC(C)c1cc(-c2nnc(O)n2-c2ccc(CN3CCC(C(=O)N4CC[C@H](C(=O)OC[C@H](O)Cn5cnc6c(c(Nc7ccc(I)cc7F)c(F)c(=O)n6C)c5=O)C4)CC3)c(F)c2)c(O)cc1O` [SDC-TRAP-0528], the “Mouse blood stability 1 h (% remaining)” value [2, 4] is reported as 0%.
Work on `CCNC(=O)c1nnc(-c2cc(C(C)C)c(O)cc2O)n1-c1ccc(C(=O)N[C@H](C(=O)N[C@@H](CC(C)C)C(=O)N(C)[C@@H](C(=O)N[C@H](C(=O)N(C)C([C@@H](C)CC)[C@@H](CC(=O)N2CCC[C@@H]2[C@@H](OC)[C@@H](C)C(=O)N[C@@H](C)[C@H](O)c2ccccc2)OC)C(C)C)C(C)C)C(C)C)cc1` (stereo partly drawn) [SDC-TRAP-0538, 4-(4-(((3R,7S,10R,13S,16S)-4-((S)-sec-butyl)-3-(2-((R)-2-((1S,2R)-3-(((1R,2S)-1-hydroxy-1-phenylpropan-2-yl)amino)-1-methoxy-2-methyl-3-oxopropyl)pyrrolidin-1-yl)-2-oxoethyl)-13-isobutyl-7,10-diisopropyl-5,11,17-trimethyl-6,9,12,15-tetraoxo-2-oxa-5,8,11,14-tetraazaoctadecan-16-yl)carbamoyl)phenyl)-5-(2,4-dihydroxy-5-isopropylphenyl)-N-ethyl-4H-1,2,4-triazole-3-carboxamide] yielded a remaining at 1 h, 10 μM [2, 4] of 118%.
`CCNC(=O)c1nnc(-c2cc(C(C)C)c(O)cc2O)n1-c1ccc(C(=O)N[C@@H](CC(C)C)C(=O)N[C@@H](CC(C)C)C(=O)N(C)[C@@H](C(=O)N[C@H](C(=O)N(C)C([C@@H](C)CC)[C@@H](CC(=O)N2CCC[C@@H]2[C@@H](OC)[C@@H](C)C(=O)N[C@@H](C)[C@H](O)c2ccccc2)OC)C(C)C)C(C)C)cc1` (stereo partly drawn) [SDC-TRAP-0539, 4-(4-(((3R,7S,10R,13S,16S)-4-((S)-sec-butyl)-3-(2-((R)-2-((1S,2R)-3-(((1R,2S)-1-hydroxy-1-phenylpropan-2-yl)amino)-1-methoxy-2-methyl-3-oxopropyl)pyrrolidin-1-yl)-2-oxoethyl)-13-isobutyl-7,10-diisopropyl-5,11,18-trimethyl-6,9,12,15-tetraoxo-2-oxa-5,8,11,14-tetraazanonadecan-16-yl)carbamoyl)phenyl)-5-(2,4-dihydroxy-5-isopropylphenyl)-N-ethyl-4H-1,2,4-triazole-3-carboxamide] showed a remaining at 1 h, 10 μM [2, 4] of 106%.
In the case of `CCNC(=O)c1nnc(-c2cc(C(C)C)c(O)cc2O)n1-c1ccc(C(=O)N[C@H](C(=O)N[C@@H](CCCNC(N)=O)C(=O)N(C)[C@@H](C(=O)N[C@H](C(=O)N(C)C([C@@H](C)CC)[C@@H](CC(=O)N2CCC[C@@H]2[C@@H](OC)[C@@H](C)C(=O)N[C@@H](C)[C@H](O)c2ccccc2)OC)C(C)C)C(C)C)C(C)C)cc1` (stereo partly drawn) [SDC-TRAP-0540, 4-(4-(((3R,7S,10R,13S,16S)-4-((S)-sec-butyl)-3-(2-((R)-2-((1S,2R)-3-(((1R,2S)-1-hydroxy-1-phenylpropan-2-yl)amino)-1-methoxy-2-methyl-3-oxopropyl)pyrrolidin-1-yl)-2-oxoethyl)-7,10-diisopropyl-5,11,17-trimethyl-6,9,12,15-tetraoxo-13-(3-ureidopropyl)-2-oxa-5,8,11,14-tetraazaoctadecan-16-yl)carbamoyl)phenyl)-5-(2,4-dihydroxy-5-isopropylphenyl)-N-ethyl-4H-1,2,4-triazole-3-carboxamide], the remaining at 1 h, 10 μM [2, 4] is reported as 55.5%.
Work on `CC(C)c1cc(-c2n[nH]c(=O)n2-c2ccc3c(ccn3C)c2)c(O)cc1O` [ganetespib, reference compound] yielded an IC50 ([1]; Homo sapiens, BT-474, 24 h, read-out: HER2 (ICW, nM)) of 37 nM.
